Drawing on paper PMC6182170, this text covers Kd for one sequence.

Test in all cases: EMSA
Common to all, as to conditions: EMSA: 20 pM dsRNA, 50 mM KCl, 10 mM Tris-HCl pH 8.0, 10% glycerol, 1 mM MgCl2, 0.5 mM DTT, on ice 30 min; native 6% gel, 0.5x TBE, 4 C

Data set [1] concerns the target ADR-1 WT;ADR-2 WT (Caenorhabditis elegans;Caenorhabditis elegans) (UniProt Q9U3D6+Q22618).
In data set [2] the target is T1, ADR-1 dsRBD1 mutant (ds1) K223E;K224A;K227A (Caenorhabditis elegans) (UniProt Q9U3D6).
T1 sequence: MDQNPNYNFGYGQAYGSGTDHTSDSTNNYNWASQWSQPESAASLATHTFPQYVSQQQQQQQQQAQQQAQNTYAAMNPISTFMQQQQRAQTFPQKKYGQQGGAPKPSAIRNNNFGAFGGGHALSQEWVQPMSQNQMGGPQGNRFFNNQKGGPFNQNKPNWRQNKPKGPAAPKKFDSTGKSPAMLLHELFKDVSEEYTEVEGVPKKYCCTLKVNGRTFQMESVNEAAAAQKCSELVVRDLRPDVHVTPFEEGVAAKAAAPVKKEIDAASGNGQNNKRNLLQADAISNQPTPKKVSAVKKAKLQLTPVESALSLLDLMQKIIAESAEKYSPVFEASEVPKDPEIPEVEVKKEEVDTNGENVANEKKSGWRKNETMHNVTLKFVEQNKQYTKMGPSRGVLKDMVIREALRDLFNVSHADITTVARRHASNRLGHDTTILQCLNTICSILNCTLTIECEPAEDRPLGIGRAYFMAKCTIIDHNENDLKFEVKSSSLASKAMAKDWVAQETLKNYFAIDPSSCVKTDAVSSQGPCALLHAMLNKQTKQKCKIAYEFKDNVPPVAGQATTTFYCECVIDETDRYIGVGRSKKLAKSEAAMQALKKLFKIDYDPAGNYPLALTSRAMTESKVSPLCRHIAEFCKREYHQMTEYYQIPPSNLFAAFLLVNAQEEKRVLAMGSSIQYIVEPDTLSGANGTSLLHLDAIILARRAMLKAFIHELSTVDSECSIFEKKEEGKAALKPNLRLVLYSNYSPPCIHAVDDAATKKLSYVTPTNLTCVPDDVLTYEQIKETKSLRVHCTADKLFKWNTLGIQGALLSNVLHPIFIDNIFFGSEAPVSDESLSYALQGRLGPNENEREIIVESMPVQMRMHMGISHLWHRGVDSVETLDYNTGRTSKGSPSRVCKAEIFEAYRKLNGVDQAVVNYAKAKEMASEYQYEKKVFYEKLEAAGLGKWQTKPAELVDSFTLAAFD

In data set [3] the target is T2, ADR-1 dsRBD2 mutant (ds2) K584E;K585A;K588A (Caenorhabditis elegans) (UniProt Q9U3D6).
T2 sequence: T1 sequence with E223K, A224K, A227K, K584E, K585A, K588A

A word on the Kd: it is the free concentration of one partner at which half of the binding sites on the other are occupied at equilibrium, for simple one-to-one binding. The low end stands for higher affinity, the high end for lower affinity.

Changes are numbered by the printed parent chain.

Chain of ADR-1 WT;ADR-2 WT (Caenorhabditis elegans;Caenorhabditis elegans) (Q22618 whole entry, one chain of several): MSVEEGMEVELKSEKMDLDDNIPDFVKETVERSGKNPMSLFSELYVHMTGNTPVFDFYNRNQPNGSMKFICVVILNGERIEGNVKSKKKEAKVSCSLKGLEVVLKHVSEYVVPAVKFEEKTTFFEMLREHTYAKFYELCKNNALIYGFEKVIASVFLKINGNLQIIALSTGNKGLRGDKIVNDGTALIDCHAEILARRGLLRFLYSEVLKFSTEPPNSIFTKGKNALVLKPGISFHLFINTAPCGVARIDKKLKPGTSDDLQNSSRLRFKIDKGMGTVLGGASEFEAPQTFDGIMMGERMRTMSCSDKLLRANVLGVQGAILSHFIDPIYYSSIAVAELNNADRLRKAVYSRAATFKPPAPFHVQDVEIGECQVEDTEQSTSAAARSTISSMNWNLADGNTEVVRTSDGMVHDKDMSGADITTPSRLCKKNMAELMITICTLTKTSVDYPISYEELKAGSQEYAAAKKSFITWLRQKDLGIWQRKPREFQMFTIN

Consider “UUAUUAGGUCGGCAAAUAAUUAUUGACGUGUUUUGCCAAUUAACGAUUUUUUGUAAAUUUUAUAUGUGUCUCUUACAGUAAACCGAGAGUGUAUAAAAGCAUAUGAAUAUCAGUUGCUUUGGUCAUCUGAGUAGUAAUACGAUUCGAAAAAAUCGAAAAGUUUUUUUUCCAAUUUUUUGAGUUAGCCGUGAGAGUUG / CAACUCUUCACAGCUAACUCAAAAAAUCGCGAAAAGCAUUUUUCAAAAAAUUUUUGAUUUUUUAGAUUCUUAAUACUACGCAGGUAGCCAAAGUAGCUGAUAUUUUUAUGUUUUCAUACAUUCACAUUUUACUAUAAGACACACAUACAAAAUUUACAAAAAUUGUUAAUUGACAAAAUACGUCAAUAAUUAUUUGUCUACCUAAUAA [lam-2 3'UTR 200 bp dsRNA]”, for which the dissociation constant Kd worked out at 1.5 nM in data set [1], 1.47 nM in data set [2] and 0.95 nM in data set [3].
